The assay deals with soluble uPAR (suPAR) (UniProt Q03405). Briefly: SPR (Biacore 2000), antibody captured on protein A/G surface, suPAR injected, 25 C, 1:1 Langmuir fit. On the technique in general: In SPR one partner is held on a chip, and binding of the other changes the refractive index at the surface.

For two molecules, Kd results are on record in patent US20220378956A1.

B1: Human Engineered ATN-658 variant HE ATN-3 (antibody, V domains shown)
VH: EVQLVQSGPEVKKTGASVKISCKASGYSFTSYYMHWVRQAHGQGLEWIGEINPYNGGASYNQKIQGRATFTVDTSTSTAYMEFSSLRSEDTAVYYCARSIYGHSVLDYWGQGTLVTVSS
VL: DVVMTQSPLSLSVTIGEPASISCRSSQSLLDSDGKTYLNWLLQKPGQSPKRLIYLVSKRDSGVPDRFSGSGSGTDFTLKISRVEAEDVGVYYCWQGTHFPLTFGQGTKLEIK
With B1, the Kd (usually a measure of binding affinity in units of concentration) stood at 0.28 nM. This lies in the sub-nanomolar range.

B2: Human Engineered ATN-658 variant HE ATN-1 (antibody, human IgG1, V domains shown)
VH: EVQLVQSGPEVVKTGASVKISCKASGYSFTSYYMHWVKQAHGQGLEWIGEINPYNGGASYNQKIKGRATFTVDTSTRTAYMEFSSLRSEDTAVYYCARSIYGHSVLDYWGQGTLVTVSS
VL: DVVMTQSPLSLSVTIGEPASISCRSSQSLLDSDGKTYLNWLLQKPGQSPKRLIYLVSKRDSGVPDRFSGSGSGTDFTLKISRVEAEDVGVYYCWQGTHFPLTFGQGTKLEIK
Regarding B2, the Kd was determined as 0.28 nM.
